Test results as given in patent publication US20180244758A1.

B1: mAb PE-87 (antibody, V domains shown)
VH: QVQLVQSGVTLVQPGGSLRVSCAASGFTFSSYAMSWVRQAPGKGLEWVSAISGLGGSTYYADSVKGRFTISRDNSKNTLYLQMNSLRAEDTAVYYCAKDHRVWAAGYHFDYWGQGALVTVSS
VL: DIVLTQSPSTLSASVGDRVTITCRASQSISSWLAWYQQKPGEAPKLLISDASSLESGVPSRFSGSGSGTEFTLTISSLQPDDFATYYCQQYYSSPTFGGGTKVEIK
B2: PE-87 V102A (antibody, V domains shown)
VH: QVQLVQSGVTLVQPGGSLRVSCAASGFTFSSYAMSWVRQAPGKGLEWVSAISGLGGSTYYADSVKGRFTISRDNSKNTLYLQMNSLRAEDTAVYYCAKDHRAWAAGYHFDYWGQGALVTVSS
VL: DIVLTQSPSTLSASVGDRVTITCRASQSISSWLAWYQQKPGEAPKLLISDASSLESGVPSRFSGSGSGTEFTLTISSLQPDDFATYYCQQYYSSPTFGGGTKVEIK
B3: PE-87 R101A (antibody, V domains shown)
VH: QVQLVQSGVTLVQPGGSLRVSCAASGFTFSSYAMSWVRQAPGKGLEWVSAISGLGGSTYYADSVKGRFTISRDNSKNTLYLQMNSLRAEDTAVYYCAKDHAVWAAGYHFDYWGQGALVTVSS
VL: DIVLTQSPSTLSASVGDRVTITCRASQSISSWLAWYQQKPGEAPKLLISDASSLESGVPSRFSGSGSGTEFTLTISSLQPDDFATYYCQQYYSSPTFGGGTKVEIK
B4: PE-87 D110A (antibody, V domains shown)
VH: QVQLVQSGVTLVQPGGSLRVSCAASGFTFSSYAMSWVRQAPGKGLEWVSAISGLGGSTYYADSVKGRFTISRDNSKNTLYLQMNSLRAEDTAVYYCAKDHRVWAAGYHFAYWGQGALVTVSS
VL: DIVLTQSPSTLSASVGDRVTITCRASQSISSWLAWYQQKPGEAPKLLISDASSLESGVPSRFSGSGSGTEFTLTISSLQPDDFATYYCQQYYSSPTFGGGTKVEIK
B5: PE-87 Y111A (antibody, V domains shown)
VH: QVQLVQSGVTLVQPGGSLRVSCAASGFTFSSYAMSWVRQAPGKGLEWVSAISGLGGSTYYADSVKGRFTISRDNSKNTLYLQMNSLRAEDTAVYYCAKDHRVWAAGYHFDAWGQGALVTVSS
VL: DIVLTQSPSTLSASVGDRVTITCRASQSISSWLAWYQQKPGEAPKLLISDASSLESGVPSRFSGSGSGTEFTLTISSLQPDDFATYYCQQYYSSPTFGGGTKVEIK
B6: PE-87 H108A (antibody, V domains shown)
VH: QVQLVQSGVTLVQPGGSLRVSCAASGFTFSSYAMSWVRQAPGKGLEWVSAISGLGGSTYYADSVKGRFTISRDNSKNTLYLQMNSLRAEDTAVYYCAKDHRVWAAGYAFDYWGQGALVTVSS
VL: DIVLTQSPSTLSASVGDRVTITCRASQSISSWLAWYQQKPGEAPKLLISDASSLESGVPSRFSGSGSGTEFTLTISSLQPDDFATYYCQQYYSSPTFGGGTKVEIK
B7: PE-87 G106A (antibody, V domains shown)
VH: QVQLVQSGVTLVQPGGSLRVSCAASGFTFSSYAMSWVRQAPGKGLEWVSAISGLGGSTYYADSVKGRFTISRDNSKNTLYLQMNSLRAEDTAVYYCAKDHRVWAAAYHFDYWGQGALVTVSS
VL: DIVLTQSPSTLSASVGDRVTITCRASQSISSWLAWYQQKPGEAPKLLISDASSLESGVPSRFSGSGSGTEFTLTISSLQPDDFATYYCQQYYSSPTFGGGTKVEIK
B8: PE-87 W103A (antibody, V domains shown)
VH: QVQLVQSGVTLVQPGGSLRVSCAASGFTFSSYAMSWVRQAPGKGLEWVSAISGLGGSTYYADSVKGRFTISRDNSKNTLYLQMNSLRAEDTAVYYCAKDHRVAAAGYHFDYWGQGALVTVSS
VL: DIVLTQSPSTLSASVGDRVTITCRASQSISSWLAWYQQKPGEAPKLLISDASSLESGVPSRFSGSGSGTEFTLTISSLQPDDFATYYCQQYYSSPTFGGGTKVEIK
B9: PE-87 Y107A (antibody, V domains shown)
VH: QVQLVQSGVTLVQPGGSLRVSCAASGFTFSSYAMSWVRQAPGKGLEWVSAISGLGGSTYYADSVKGRFTISRDNSKNTLYLQMNSLRAEDTAVYYCAKDHRVWAAGAHFDYWGQGALVTVSS
VL: DIVLTQSPSTLSASVGDRVTITCRASQSISSWLAWYQQKPGEAPKLLISDASSLESGVPSRFSGSGSGTEFTLTISSLQPDDFATYYCQQYYSSPTFGGGTKVEIK
B10: PE-87 F109A (antibody, V domains shown)
VH: QVQLVQSGVTLVQPGGSLRVSCAASGFTFSSYAMSWVRQAPGKGLEWVSAISGLGGSTYYADSVKGRFTISRDNSKNTLYLQMNSLRAEDTAVYYCAKDHRVWAAGYHADYWGQGALVTVSS
VL: DIVLTQSPSTLSASVGDRVTITCRASQSISSWLAWYQQKPGEAPKLLISDASSLESGVPSRFSGSGSGTEFTLTISSLQPDDFATYYCQQYYSSPTFGGGTKVEIK
B11: PE-87 D99A (antibody, V domains shown)
VH: QVQLVQSGVTLVQPGGSLRVSCAASGFTFSSYAMSWVRQAPGKGLEWVSAISGLGGSTYYADSVKGRFTISRDNSKNTLYLQMNSLRAEDTAVYYCAKAHRVWAAGYHFDYWGQGALVTVSS
VL: DIVLTQSPSTLSASVGDRVTITCRASQSISSWLAWYQQKPGEAPKLLISDASSLESGVPSRFSGSGSGTEFTLTISSLQPDDFATYYCQQYYSSPTFGGGTKVEIK
B12: PE-87 H100A (antibody, V domains shown)
VH: QVQLVQSGVTLVQPGGSLRVSCAASGFTFSSYAMSWVRQAPGKGLEWVSAISGLGGSTYYADSVKGRFTISRDNSKNTLYLQMNSLRAEDTAVYYCAKDARVWAAGYHFDYWGQGALVTVSS
VL: DIVLTQSPSTLSASVGDRVTITCRASQSISSWLAWYQQKPGEAPKLLISDASSLESGVPSRFSGSGSGTEFTLTISSLQPDDFATYYCQQYYSSPTFGGGTKVEIK

target: EBOV GP[change] (Ebola virus) (UniProt Q05320)
Sequence (Q05320 33-501, chain 1 of 2): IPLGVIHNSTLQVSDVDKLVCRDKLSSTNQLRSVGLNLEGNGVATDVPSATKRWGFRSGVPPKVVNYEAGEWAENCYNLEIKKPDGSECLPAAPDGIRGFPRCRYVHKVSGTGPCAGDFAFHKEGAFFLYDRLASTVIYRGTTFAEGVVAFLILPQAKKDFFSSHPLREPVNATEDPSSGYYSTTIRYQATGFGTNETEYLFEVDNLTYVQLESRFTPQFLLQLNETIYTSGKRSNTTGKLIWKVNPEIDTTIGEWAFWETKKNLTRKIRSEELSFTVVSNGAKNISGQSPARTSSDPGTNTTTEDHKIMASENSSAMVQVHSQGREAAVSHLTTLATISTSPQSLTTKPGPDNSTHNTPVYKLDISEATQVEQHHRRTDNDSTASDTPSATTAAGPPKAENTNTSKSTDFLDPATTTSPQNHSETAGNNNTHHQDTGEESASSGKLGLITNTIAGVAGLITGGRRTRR
Sequence (Q05320 502-650, chain 2 of 2): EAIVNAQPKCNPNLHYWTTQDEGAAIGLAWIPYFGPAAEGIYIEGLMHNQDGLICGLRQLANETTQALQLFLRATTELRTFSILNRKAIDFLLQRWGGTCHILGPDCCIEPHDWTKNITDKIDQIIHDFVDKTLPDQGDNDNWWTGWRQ

Binder	Kd [nM]
B1	< 0.001
B2	4
B3	9.4
B4	1.3
B5	5.9
B6	18
B7	0.03
B8	1.3
B9	30
B10	37
B11	74
B12	4.5
